Source: patent US20100291074A1, “CYCLOPHILIN D-AMYLOID BETA INTERACTION POTENTIATES MITOCHONDRIAL DYSFUNCTION IN A TRANSGENIC MOUSE MODEL OF ALZHEIMER'S DISEASE” (COLUMBIA UNIVERSITY IN THE CITY OF NEW YORK, priority 2007, published 2010)

Target: Aβ (amyloid beta peptide, length and aggregation state not specified; ˜4 kDa band) (UniProt P05067)
Assay: cell-based or functional assay

mitochondrial ROS (MitoSox staining) in brain slices, Tg mAPP/CypD-/- versus Tg mAPP mice: 80%
Substance: mouse CypD, endogenous, in brain mitochondria and cultured cortical neurons of nonTg and Tg mAPP mice (from UniProt Q99KR7 30-206) (enzyme)
